B1: mouse CD4, wild type [mouse] / Lck (Src kinase) [mouse (endogenous in 58α−β− T cell hybridoma)] (parent)
chain 1: KTLVLGKEGESAELPCESSQKKITVFTWKFSDQRKILGQHGKGVLIRGGSPSQFDRFDSKKGAWEKGSFPLIINKLKMEDSQTYICELENRKEEVELWVFKVTFSPGTSLLQGQSLTLTLDSNSKVSNPLTECKHKKGKVVSGSKVLSMSNLRVQDSDFWNCTVTLDQKKNWFGMTLSVLGFQSTAITAYKSEGESAEFSFPLNFAEENGWGELMWKAEKDSFFQPWISFSIKNKEVSVQKSTKDLKLQLKETLPLTLKIPQVSLQFAGSGNLTLTLDKGTLHQEVNLVVMKVAQLNNTLTCEVMGPTSPKMRLTLKQENQEARVSEEQKVVQVVAPETGLWQCLLSEGDKVKMDSRIQVLSRGVNQTVFLACVLGGSFGFLGFLGLCILCCVRCRHQQRQAARMSQIKRLLSEKKTCQCPHRMQKSHNLI
chain 2: MGCVCSSNPEDDWMENIDVCENCHYPIVPLDSKISLPIRNGSEVRDPLVTYEGSLPPASPLQDNLVIALHSYEPSHDGDLGFEKGEQLRILEQSGEWWKAQSLTTGQEGFIPFNFVAKANSLEPEPWFFKNLSRKDAERQLLAPGNTHGSFLIRESESTAGSFSLSVRDFDQNQGEVVKHYKIRNLDNGGFYISPRITFPGLHDLVRHYTNASDGLCTKLSRPCQTQKPQKPWWEDEWEVPRETLKLVERLGAGQFGEVWMGYYNGHTKVAVKSLKQGSMSPDAFLAEANLMKQLQHPRLVRLYAVVTQEPIYIITEYMENGSLVDFLKTPSGIKLNVNKLLDMAAQIAEGMAFIEEQNYIHRDLRAANILVSDTLSCKIADFGLARLIEDNEYTAREGAKFPIKWTAPEAINYGTFTIKSDVWSFGILLTEIVTHGRIPYPGMTNPEVIQNLERGYRMVRPDNCPEELYHLMMLCWKERPEDRPTFDYLRSVLDDFFTATEGQYQPQP

Variants of: B1
Assay: co-IP of Lck with CD4 from sucrose gradient fractions
Details: with Lck (Src kinase) [mouse (endogenous in 58α−β− T cell hybridoma)], mean ± SEM of three independent experiments, read off a plot
[1] = DRM fractions (center graph), parent: 2.6
[2] = DSM fractions (right graph), parent: 8.9
[3] = DRM fractions (center graph), parent: 3.7
[4] = DSM fractions (right graph), parent: 6.9

Variant	response [1]	response [2]	response [3]	response [4]
chain 1 S406A S413A	3.2 AUC			
chain 1 S406D L411A L412A S413D	0.87 AUC	6.3 AUC		
chain 1 S406D S413D	1.8 AUC	8.4 AUC		
chain 1 C392S C395S			2.1 AUC	8.9 AUC
chain 1 G377V G380L			3.5 AUC	6.4 AUC
chain 1 G377V G380L C392S C395S C418S C420S			0.85 AUC	1.2 AUC

Source: publication PMC9333989
